# Data taken from paper PMC6396667.
# Substitutions are numbered along the chain they refer to. In names and notes the source's numbering stands.
# B1: C35S-hTRX (enzyme)
# chain: MVKQIESKTAFQEALDAAGDKLVVVDFSATWCGPSKMIKPFFHSLSEKYSNVIFLEVDVDDCQDVASECEVKCMPTFQFFKKGQKVGEFSGANKEKLEATINELV
# B2: C32/35S-hTRX (enzyme)
# chain: B1 chain with C32S
# B3: C62S-hTRX (enzyme)
# chain: B1 chain with S35C, C62S
# B4: C69S-hTRX (enzyme)
# chain: B1 chain with S35C, C69S
# B5: C62/69S-hTRX (enzyme)
# chain: B1 chain with S35C, C62S, C69S
# B6: C73S-hTRX (enzyme)
# chain: B1 chain with S35C, C73S
# B7: IAA-treated hTRX (thiol-free variant) (enzyme)
# chain: B1 chain with S35C
# modifications: all cysteine residues chemically modified with iodoacetamide
# Molecular target: human protein arginine deiminase 4 (PAD4) (human) (UniProt Q9UM07)
# Sequence of UniProt Q9UM07 (Q9UM07 whole entry): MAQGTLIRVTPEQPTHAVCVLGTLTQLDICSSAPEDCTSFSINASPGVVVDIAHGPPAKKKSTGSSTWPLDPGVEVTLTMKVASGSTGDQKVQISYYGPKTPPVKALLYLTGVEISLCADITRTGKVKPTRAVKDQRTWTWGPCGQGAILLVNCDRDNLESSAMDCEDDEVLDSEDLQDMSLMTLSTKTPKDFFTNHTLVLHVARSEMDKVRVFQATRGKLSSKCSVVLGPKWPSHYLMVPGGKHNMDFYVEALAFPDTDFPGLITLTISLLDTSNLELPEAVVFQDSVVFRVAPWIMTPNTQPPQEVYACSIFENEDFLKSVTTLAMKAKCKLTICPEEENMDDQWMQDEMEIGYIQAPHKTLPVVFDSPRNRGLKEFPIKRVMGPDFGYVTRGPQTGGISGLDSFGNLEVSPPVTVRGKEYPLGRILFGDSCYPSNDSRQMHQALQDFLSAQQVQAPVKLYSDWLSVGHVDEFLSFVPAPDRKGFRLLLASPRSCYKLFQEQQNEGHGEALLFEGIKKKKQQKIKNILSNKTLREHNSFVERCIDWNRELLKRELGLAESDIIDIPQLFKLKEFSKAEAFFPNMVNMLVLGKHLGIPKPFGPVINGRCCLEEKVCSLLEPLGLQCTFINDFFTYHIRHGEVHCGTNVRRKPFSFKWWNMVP
row,Binder,K d(app): hTRX concentration (0-10 uM) giving half-maximal activation of PAD4 (citrullination of BAEE)
1,B1,1170 nM
2,B2,440 nM
3,B3,1140 nM
4,B4,1380 nM
5,B5,610 nM
6,B6,780 nM
7,B7,620 nM
